# B1: Endoribonuclease ZC3H12A (Mus musculus), Q5D1E7 (parent)
# chain: MSDPCGTKPVQESNPTMSLWSLEDRHSSQGRPQPDQDPVAKEAPTSELQMKVDFFRKLGYSSSEIHSVLQKLGVQADTNTVLGELVKHGSATERECQALTAPSPQPPLVPRGGSTPKPSTLEPSLPEEDREGSDLRPVVIDGSNVAMSHGNKEVFSCRGILLAVNWFLERGHTDITVFVPSWRKEQPRPDVPITDQHILRELEKKKILVFTPSRRVGGKRVVCYDDRFIVKLAFESDGVVVSNDTYRDLQGERQEWKRFIEERLLMYSFVNDKFMPPDDPLGRHGPSLDNFLRKKPLPSEHRKQPCPYGKKCTYGIKCRFFHPERPSRPQRSVADELRANALLSPPRTPVKDKSSQRPSPASQSSSVSLEAEPGSLDGKKLGARSSPGPHREGSPQTCAPAGRSLPVSGGSFGPTEWLAHTQDSLPYTSQECLDSGIGSLESQMSELWGVRGGSPGESGPTRGPYAGYHSYGSKVPAAPSFSPFRPAMGAGHFSVPTDYVPPPPTYPSREYWSEPYPLPPPTPVLQEPQRPSPGAGGGPWGRVGDLAKERAGVYTKLCGVFPPHLVEAVMRRFPQLLDPQQLAAEILSYKSQHLSE
# partner: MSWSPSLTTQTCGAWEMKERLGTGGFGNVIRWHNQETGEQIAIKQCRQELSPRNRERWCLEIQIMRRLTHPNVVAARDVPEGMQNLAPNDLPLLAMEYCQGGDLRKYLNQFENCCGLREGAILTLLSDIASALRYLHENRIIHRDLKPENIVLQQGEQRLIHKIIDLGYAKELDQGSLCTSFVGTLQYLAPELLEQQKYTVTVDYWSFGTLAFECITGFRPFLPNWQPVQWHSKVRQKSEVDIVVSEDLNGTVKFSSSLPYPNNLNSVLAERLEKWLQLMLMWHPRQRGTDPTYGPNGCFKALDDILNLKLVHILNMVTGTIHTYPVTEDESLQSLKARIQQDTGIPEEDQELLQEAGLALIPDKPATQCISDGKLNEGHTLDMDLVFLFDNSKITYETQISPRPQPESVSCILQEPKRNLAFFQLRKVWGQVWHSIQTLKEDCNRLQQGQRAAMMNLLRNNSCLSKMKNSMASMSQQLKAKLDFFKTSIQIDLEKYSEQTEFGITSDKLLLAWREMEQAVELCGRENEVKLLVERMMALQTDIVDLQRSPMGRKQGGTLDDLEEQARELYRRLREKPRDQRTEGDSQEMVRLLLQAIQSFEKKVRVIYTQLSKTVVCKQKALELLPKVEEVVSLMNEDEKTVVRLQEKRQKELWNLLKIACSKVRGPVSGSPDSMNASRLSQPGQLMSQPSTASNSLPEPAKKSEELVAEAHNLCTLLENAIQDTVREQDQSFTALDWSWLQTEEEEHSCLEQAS
# Variants of: B1
# Conditions: with ikkb_human IKBKB
row,effect of a mutation on the interaction,Variant
1,decreasing interaction,S439A
2,decreasing interaction,S435A;S439A
3,decreasing interaction,S435A

# Reference: IntAct's records for PubMed 22037600
